Data on eight molecules can be found in patent US20110038892A1 (priority 2009, published 2011).

One assay concerns SNARE assemblies. In kind it is binding.
Assay [1] deals with syntaxin1 (stx1) and SNAP25 (S25) (Rattus norvegicus, UniProt P32851+P60881).

No end group written: not given here. *: point of attachment. FITC = O=C1OC2(c3ccc(O)cc3Oc3cc(O)ccc32)c2ccc(NC(=S)*)cc21; Ahx = NCCCCCC(=O)O

Chain of S3S23 (O00161 whole entry): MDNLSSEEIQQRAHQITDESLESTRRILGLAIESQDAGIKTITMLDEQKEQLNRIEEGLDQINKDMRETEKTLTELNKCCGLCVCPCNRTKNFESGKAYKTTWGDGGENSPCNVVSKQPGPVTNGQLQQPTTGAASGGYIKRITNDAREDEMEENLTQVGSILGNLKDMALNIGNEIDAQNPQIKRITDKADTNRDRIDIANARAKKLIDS
Chain of S1S23 (O00161 whole entry): as above
Chain of syntaxin1 (stx1) and SNAP25 (S25) (P60881 whole entry): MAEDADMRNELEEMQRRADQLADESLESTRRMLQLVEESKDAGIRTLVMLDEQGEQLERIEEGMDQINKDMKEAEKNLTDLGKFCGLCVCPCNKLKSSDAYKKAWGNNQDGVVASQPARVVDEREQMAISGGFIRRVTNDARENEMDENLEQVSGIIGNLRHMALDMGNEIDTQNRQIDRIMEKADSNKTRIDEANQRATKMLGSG
Chain of syntaxin1 (stx1) and SNAP25 (S25) (P32851 whole entry): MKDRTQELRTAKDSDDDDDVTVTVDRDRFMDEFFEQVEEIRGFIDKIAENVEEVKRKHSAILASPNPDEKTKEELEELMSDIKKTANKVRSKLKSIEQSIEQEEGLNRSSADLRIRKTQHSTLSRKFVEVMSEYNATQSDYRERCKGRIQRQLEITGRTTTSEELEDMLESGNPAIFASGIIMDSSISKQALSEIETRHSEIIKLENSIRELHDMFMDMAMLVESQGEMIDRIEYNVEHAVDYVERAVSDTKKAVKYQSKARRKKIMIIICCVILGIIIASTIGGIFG

In the case of “Ac-ERKAKYAKMEAEREVMRQGIRDKYGIKKGSGSGGIKVAV-NH2 [29 amino acid complexin 1 peptide]”, the “interaction with SNARE assemblies” value in the assay on SNARE assemblies is “can interact with SNARE assemblies”.

“{FITC-Ahx}-DIMRVNVDKVLERDQKLSELDDRADALQAGASQFETSAAKLA”: the “formation of SDS-resistant complex” value in assay [1] is recorded as “still forms an SDS-resistant complex”.

Turning to synaptobrevin (VAMP2), the Tm in the assay with S1S25 was 71 °C; with S3S25 it was 59 °C; with S1S23 it was 65 °C; in the assay with S3S23 it was 61 °C.

For the molecule “{FITC-Ahx}-DKVLERDQKLSELDDRADALQAGASQFETSAAKLA [35 amino acid synaptobrevin SNARE motif]”, the “formation of SDS-resistant complex” value in assay [1] is given as “forms a complex but it ‘melts’ during gel-electrophoresis”.

B1: VAMP8 (protein)
VAMP8: EEASGSAGNDRVRNLQSEVEGVKNIMTQNVERILSRGENLDHLRNKTEDLEATSEHFKTTSQKVARKFWWKNVK
B1: the Tm in the assay with S1S25 was 57 °C; in the assay with S3S25, 48 °C; in the assay with S1S23, 57 °C; with S3S23, 56 °C.

B2: VAMP4 (protein)
VAMP4: PPKFKRHLNDDDVTGSVKSERRNLLEDDSDEEEDFFLRGPSGPRFGPRNDKIKHVQNQVDEVIDVMQENITKVIERGERLDELQDKSESLSDNATAFSNRSKQLRRQMWWRGCK
Turning to B2, the Tm in the assay with S1S25 stood at 60 °C; with S3S25 it was 53 °C; with S1S23, 60 °C; with S3S23 it was 57 °C.

B3: VAMP7 (protein)
VAMP7: AILFAVVARGTTILAKHAWCGGNFLEVTEQILAKIPSENNKLTYSHGNYLFHYICQDRIVYLCITDDDFERSRAFSFLNEVKKRFQTTYGSRAQTALPYAMNSEFSSVLAAQLKHHSENKSLDKVMETQAQVDELKGIMVRNIDLVAQRGERLELLIDKTENLVDSSVTFKTTSRNLARAMCMKNIK
Take B3: the Tm with S1S25 was found to be 56 °C; in the assay with S3S25, 45 °C; with S1S23, 57 °C; with S3S23, 50 °C.

B4: VAMP5 (protein)
VAMP5: AGKELKQCQQQADEVTEIMLNNFDKVLERHGKLAELEQRSDQLLDMSSAFSKTTKTLAQQKRWENIRCR
With B4, the Tm with S1S25 turned out to be 53 °C; with S3S25, 42 °C; with S1S23 it was 55 °C; with S3S23, 52 °C.
